From patent publication US20140322216A1 (University of Pennsylvania, published 2014)

Key:
[1] = target: T1, full-length glycosylated recombinant hGPC3 protein expressed in a murine myeloma cell line (human, UniProt P51654 25-559, limits assumed); test: direct ELISA on rhGPC3 coated at 0.5 ug/ml
T1 construct: Bought protein; also called rhGPC3; full length hGPC3 protein expressed by mammalian cells
Method: (§1) FIG. 4A depicts the results of immunoblot analysis of binding of scFv to rhGPC3. The antigens including rhGPC3 and GST protein were spotted onto cellulose membrane (10 ng/each). After the blocking step the membrane were incubated with the scFvs antibody in room temperature for 1 h. The binding of scFv to antigen was detected by incubation with mouse anti-V5 mAb following by infrared dye IR680-labeled anti-mouse antibodies. PBS was used as negative control. FIG. 4B depicts results of direct ELISA for affinity determination of scFv 3E11. Two different concentrations of rhGPC3 protein (0.5 and 1.0 ug/ml) were coated and incubated with serial diluted scFv 3E11. For detection, mouse-sourced anti-V5 mAb following HRP-conjugated anti-mouse antibody and SureBlue substrate (measured at 450 nm) was used. FIG. 4C depicts EC50 values for 5 candidate scFvs determined by direct ELISA, Assays were performed twice separately for each scFv.
(§2) After three washing steps with PBS/0.1% Tween-20 (PBST), 300 ul per well of blocking solution (2% milk in PBS pH 7) was added for 2 h at room temperature then washed three tinmes with PBST. Candidate scFv starting at 100 ug/ml were added with serial dilutions, incubated for Ih at room temperature followed by three washing steps with PBST, scFv binding was detected by adding anti-V5 HRP (Invitrmgen), washing ×4 with PBST, washing ×1 with PBS, then adding 50 ul/well of TMB peroxidase substrate (KPL, Gaithersburg Md.) plus peroxidase substrate solution B at 1:1 ratio, then the reaction was stopped using 50 ul of 0.5M H₂SO₄. OD450 was measured using a BioRad 680 microplate reader. For determination of functional affinity, half maximal binding concentration (EC50) was calculated with non-linear regression curve fit algorithm using the software program PRISM (GraphPad Software, San Diego, Calif.). rhGPC3 expressed in a murine myeloma cell line which was commercially obtained from R&D Systems (Minneapolis Minn.).

GST protein = GST protein (UniProt P08515 1-218 = GST); test: dot blot, 10 ng GST per spot, scFv detected with anti-V5 mAb and IR680 anti-mouse
GST protein, sequence (P08515 whole entry): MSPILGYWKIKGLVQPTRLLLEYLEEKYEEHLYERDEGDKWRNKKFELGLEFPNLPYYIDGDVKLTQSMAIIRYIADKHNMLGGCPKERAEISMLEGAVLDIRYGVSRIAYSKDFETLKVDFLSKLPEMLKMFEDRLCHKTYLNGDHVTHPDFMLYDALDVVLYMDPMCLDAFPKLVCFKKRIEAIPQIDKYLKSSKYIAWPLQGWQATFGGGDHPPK
Method: as §1

[2] = target: T1, full-length glycosylated recombinant …; test: direct ELISA, rhGPC3 coated at 1 ug/ml; rhGPC3 at 1 ug/ml
Method: as §1
(§3) After three washing steps with PBS/0.1% Tween-20 (PBST), 300 ul per well of blocking solution (2% milk in PBS pH 7) was added for 2 h at room temperature then washed three tinmes with PBST. […] OD450 was measured using a BioRad 680 microplate reader. […]

[3] = target: T1, full-length glycosylated recombinant …; test: direct ELISA, rhGPC3 coated at 0.5 ug/ml; rhGPC3 at 0.5 ug/ml
Method: as §1, §3

[4] = target: T1, full-length glycosylated recombinant …; test: direct ELISA on rhGPC3, lower coat (open circles; key prints '0.5mg/ml', legend says 0.5 ug/ml)
Method: as §1, §3

[5] = target: T1, full-length glycosylated recombinant …; test: ELISA on rhGPC3 precoated at 1 ug/ml; drawn table headed 'Table 1. Kd of scFv candidates', column EC50 (nM)
[6] = target: T1, full-length glycosylated recombinant …; test: direct ELISA on rhGPC3 coated at 1 ug/ml
Method: as §1, §2

T1 sequence (P51654 25-559 limits assumed): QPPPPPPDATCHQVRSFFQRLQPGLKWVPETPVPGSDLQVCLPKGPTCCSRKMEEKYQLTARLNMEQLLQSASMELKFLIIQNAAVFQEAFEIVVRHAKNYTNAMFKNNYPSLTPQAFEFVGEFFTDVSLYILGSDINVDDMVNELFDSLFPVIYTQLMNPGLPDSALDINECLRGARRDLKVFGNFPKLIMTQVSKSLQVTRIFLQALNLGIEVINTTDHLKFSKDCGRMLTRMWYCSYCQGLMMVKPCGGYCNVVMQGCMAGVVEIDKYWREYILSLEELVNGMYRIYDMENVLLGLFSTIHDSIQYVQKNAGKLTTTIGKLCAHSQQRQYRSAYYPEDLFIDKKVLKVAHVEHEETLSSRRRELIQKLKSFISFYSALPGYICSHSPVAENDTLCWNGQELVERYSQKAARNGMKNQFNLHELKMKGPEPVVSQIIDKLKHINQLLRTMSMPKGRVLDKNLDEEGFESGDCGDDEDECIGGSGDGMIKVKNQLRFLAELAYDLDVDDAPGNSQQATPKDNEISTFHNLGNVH

B1: scFv 4G5 (scFv, V domains shown)
VH: QVQLQESGLGLVKPSETLSLTCAVSGYSITSGYYWGWIRQTPGKGLEWIGRIYYGGSTHYNPSLQSRVTISVDTAKNQFSLKLSSVTAADTAVYYCARDRNYQSLSGYCLDYWGQGKVVTVSS
VL: EIVLTQSPGTLSVSPGERATLSCRASQSVSSHIAWYQQKPGQAPRLLIHGASTRATGVPARFSGSGSGTEFTLTISSLQSEDFAVYYCQQYNKWPPEYTFGQGTKLEIK
notes: Human scFv secreted by yeast, one polypeptide with His and V5 tags
B1 was tested, and the EC50 [1] was 38.8 nM and the binding result (GST protein) was “no binding”.

B2: scFv 3E11 (scFv, V domains shown)
VH: QVQLVQSGGGVVQPGRSLRLSCAASGFTFSSYGLHWVRQAPGKGLEWVAAISYDGSKKYYADSVKGRLTISRDNSKNTLYLQMNSLSPEDTALYFCARGWFVEPLSWGQGTLVTVSS
VL: not shown
notes: Human scFv secreted by yeast (p416-BCCR vector), one polypeptide; purified on nickel/anti-HIS and detected with anti-V5, so it carries His and V5 tags
Binder B2 has an EC50 [2] of 14 nM, an EC50 [1] of 12 nM and an EC50 [3] of 11 nM. The binding result (GST protein) was “no binding”, the “EC50 (read off the curve)” value [4] was ~10 nM and the EC50 [5] was 12 nM. For the same binder, the EC50 [6] was 11.1 nM.

B3: scFv 2G9 (scFv, V domains shown)
VH: QVQLQESGPGLVKPSETLSLSCTVSGGSISSSSYYWAWIRQPPGKGLEWIGNIYYSGSTYYNPSLKSRVTISVDTSKNQFSLKLSSVTAADTAVYYCARFPLIRGYRYRYDEYWGQGTLVTVSS
VL: DIVMTQSPLSLPVTPGEAASISCRSSQSLLHRDGYHYLNWFLQKPGQSPQLLIYLGSNRASGVPDRFSGSGSGTDFTLKISRVEAEDVGVYYCMQAPQTPRTLLGQGTKLEIK
notes: as for B1
For B3, the binding result (GST protein) was “no binding” and the EC50 [6] was 111 nM.

B4: scFv 3D8 (scFv, V domains shown)
VH: QVQLVQSGGGLAQPGGSLRLSCAASGSSFSTFVLSWVRQTPGKGLQWVSTISGSGTSTYYADSVKGRFTVSRDNAKNTQYLQMNSLRAEDTAIYYCARHKSFGVQWLWGQGALVVRLL
VL: VHIVMTQSPLSLPVTLGQPASISCWSSQSLVYGDGNTYLNWFQQRPGQSPRRLIYKVSNRDSGVPDRFSGSGSGTDFTLKISRVEAEDVGVYYCMQGTHWPPGTFGGGTKLEIK
notes: as for B1
B4 gave an EC50 [1] of 106 nM and an EC50 [6] of 94.7 nM.
